Data on one substance can be found in patent US20120042415A1.

The target of the experiment is wild type pokeweed antiviral protein (PAP) (pokeweed) (UniProt P10297). Briefly: cell-based or functional assay.
UniProt P10297, sequence (P10297 23-285 limits assumed): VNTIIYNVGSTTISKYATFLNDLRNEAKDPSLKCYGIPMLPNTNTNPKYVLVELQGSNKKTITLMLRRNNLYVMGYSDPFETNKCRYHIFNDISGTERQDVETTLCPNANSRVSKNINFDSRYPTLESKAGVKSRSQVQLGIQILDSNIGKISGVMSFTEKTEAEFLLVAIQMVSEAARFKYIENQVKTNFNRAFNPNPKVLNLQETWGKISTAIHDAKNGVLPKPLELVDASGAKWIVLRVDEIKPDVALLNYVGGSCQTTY

“yeast wild type ribosomal protein L3 (full length) (from UniProt P14126 1-387)” gave a transformation frequency of tobacco with L3+PAP (NT243) of 24%.
